Data taken from patent US20220135701A1 (Genentech, published 2022).

How the values were obtained:
[1] = molecular target: T1, human MerTK on human macrophages (human, UniProt Q12866 21-999); assay: cell-based or functional assay
T1 sequence: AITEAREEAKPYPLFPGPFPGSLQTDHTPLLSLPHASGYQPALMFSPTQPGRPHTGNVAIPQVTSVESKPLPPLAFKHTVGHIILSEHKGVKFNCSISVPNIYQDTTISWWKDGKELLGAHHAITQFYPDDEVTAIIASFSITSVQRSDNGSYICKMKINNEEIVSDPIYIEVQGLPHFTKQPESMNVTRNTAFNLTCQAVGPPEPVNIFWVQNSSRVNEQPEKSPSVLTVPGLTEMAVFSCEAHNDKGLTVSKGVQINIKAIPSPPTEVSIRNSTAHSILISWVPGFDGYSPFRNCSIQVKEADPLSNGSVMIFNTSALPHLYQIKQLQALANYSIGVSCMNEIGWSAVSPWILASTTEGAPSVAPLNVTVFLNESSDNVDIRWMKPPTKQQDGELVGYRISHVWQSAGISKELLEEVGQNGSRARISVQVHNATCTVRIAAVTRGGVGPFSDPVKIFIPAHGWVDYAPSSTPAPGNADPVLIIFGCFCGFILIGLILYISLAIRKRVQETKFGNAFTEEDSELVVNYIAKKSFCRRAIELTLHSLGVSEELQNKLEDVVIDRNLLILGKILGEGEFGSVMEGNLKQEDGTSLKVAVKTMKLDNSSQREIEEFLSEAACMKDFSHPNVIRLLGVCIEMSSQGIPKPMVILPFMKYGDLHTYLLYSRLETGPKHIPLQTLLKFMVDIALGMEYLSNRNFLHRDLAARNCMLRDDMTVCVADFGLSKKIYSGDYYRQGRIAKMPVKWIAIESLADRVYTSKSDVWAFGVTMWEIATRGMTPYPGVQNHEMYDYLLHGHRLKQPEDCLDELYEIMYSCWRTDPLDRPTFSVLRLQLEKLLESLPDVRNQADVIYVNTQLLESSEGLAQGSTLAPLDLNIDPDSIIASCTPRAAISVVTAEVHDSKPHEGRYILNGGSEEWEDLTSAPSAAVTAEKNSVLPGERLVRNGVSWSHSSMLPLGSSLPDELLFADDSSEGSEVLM

human MerTK = molecular target: T2, human MerTK (human, UniProt Q12866 26-499); assay: SPR BIAcore T200, Ab captured, 37C
T2 construct: also called HuMER
T2 sequence: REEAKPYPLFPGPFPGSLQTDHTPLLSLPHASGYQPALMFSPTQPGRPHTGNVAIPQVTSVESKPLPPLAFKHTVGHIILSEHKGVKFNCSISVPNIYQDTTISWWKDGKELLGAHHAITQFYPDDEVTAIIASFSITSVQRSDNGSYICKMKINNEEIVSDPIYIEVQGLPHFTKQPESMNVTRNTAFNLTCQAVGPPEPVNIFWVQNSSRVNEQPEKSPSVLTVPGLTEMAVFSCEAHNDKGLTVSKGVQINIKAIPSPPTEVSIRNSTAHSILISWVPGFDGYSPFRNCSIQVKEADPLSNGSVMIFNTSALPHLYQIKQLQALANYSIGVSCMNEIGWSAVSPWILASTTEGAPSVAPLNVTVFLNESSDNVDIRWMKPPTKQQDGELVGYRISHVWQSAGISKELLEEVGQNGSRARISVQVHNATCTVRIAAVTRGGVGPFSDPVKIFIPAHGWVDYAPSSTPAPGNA
Protocol: (§1) All binding affinity determinations were obtained using Surface Plasmon Resonance (SPR) measurements from a BIAcore™-T200 instrument. Briefly, each rabbit or humanized antibody was captured to achieve approximately 100 RU (Response Units). Then, 3-fold serial dilutions of MerTK from various species (0.4 nM to 100 nM) diluted in HBS-EP buffer (0.01M HEPES pH 7.4, 0.15M NaCl, 3 mM EDTA and 0.05% v/v surfactant P20) was injected into the BIAcore™-T200 instrument at 25° C. or 37° C. with a flow rate of 30 μl/min. Association rates (kₒₙ) and dissociation rates (koff) were calculated using a simple one-to-one Langmuir binding model (BIAcore T200 evaluation software version 2.0). The equilibrium dissociation constant (KD) was calculated as the ratio koff/kₒₙ.

cynomolgus monkey MerTK = molecular target: T3, cynomolgus monkey MerTK (cynomolgus monkey, UniProt A0A2K5V1H9 32-505); assay: SPR BIAcore T200, Ab captured, 37C
T3 construct: Soluble analyte in SPR; also called Cyno MerTK
T3 sequence: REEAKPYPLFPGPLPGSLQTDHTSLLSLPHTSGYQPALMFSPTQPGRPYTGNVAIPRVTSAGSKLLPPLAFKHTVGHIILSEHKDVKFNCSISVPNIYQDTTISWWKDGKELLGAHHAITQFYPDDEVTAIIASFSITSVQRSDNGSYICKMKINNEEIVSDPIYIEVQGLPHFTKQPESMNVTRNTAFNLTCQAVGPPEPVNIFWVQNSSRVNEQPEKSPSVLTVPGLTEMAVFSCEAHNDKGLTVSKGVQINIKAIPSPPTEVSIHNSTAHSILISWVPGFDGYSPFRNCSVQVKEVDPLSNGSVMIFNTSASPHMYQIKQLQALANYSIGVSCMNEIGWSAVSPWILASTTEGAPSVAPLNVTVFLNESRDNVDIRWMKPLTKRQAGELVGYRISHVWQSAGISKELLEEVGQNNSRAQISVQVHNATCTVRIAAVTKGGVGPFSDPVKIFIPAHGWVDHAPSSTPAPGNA
Protocol: as §1

rat MerTK = molecular target: T4, rat MerTK (rat, UniProt P57097 23-496, limits assumed); assay: SPR BIAcore T200, Ab captured, 37C
T4 construct: Soluble analyte in SPR
T4 sequence (looked up): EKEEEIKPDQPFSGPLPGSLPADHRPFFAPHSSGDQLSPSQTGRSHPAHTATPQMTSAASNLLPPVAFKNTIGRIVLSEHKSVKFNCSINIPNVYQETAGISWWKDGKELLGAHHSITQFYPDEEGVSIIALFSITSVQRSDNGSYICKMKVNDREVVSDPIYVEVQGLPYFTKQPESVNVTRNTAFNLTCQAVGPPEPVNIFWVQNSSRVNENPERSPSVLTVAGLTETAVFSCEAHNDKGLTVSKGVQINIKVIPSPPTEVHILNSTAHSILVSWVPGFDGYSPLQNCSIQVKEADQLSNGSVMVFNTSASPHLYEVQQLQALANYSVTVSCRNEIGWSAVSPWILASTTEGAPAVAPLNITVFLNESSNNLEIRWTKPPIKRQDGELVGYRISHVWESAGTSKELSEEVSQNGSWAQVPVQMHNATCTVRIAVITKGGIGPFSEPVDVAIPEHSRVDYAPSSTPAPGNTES
Protocol: as §1

mouse MerTK = molecular target: T5, mouse MerTK (mouse, UniProt Q60805 23-496); assay: SPR BIAcore T200, Ab captured, 37C
T5 construct: also called MuMER
T5 sequence (looked up): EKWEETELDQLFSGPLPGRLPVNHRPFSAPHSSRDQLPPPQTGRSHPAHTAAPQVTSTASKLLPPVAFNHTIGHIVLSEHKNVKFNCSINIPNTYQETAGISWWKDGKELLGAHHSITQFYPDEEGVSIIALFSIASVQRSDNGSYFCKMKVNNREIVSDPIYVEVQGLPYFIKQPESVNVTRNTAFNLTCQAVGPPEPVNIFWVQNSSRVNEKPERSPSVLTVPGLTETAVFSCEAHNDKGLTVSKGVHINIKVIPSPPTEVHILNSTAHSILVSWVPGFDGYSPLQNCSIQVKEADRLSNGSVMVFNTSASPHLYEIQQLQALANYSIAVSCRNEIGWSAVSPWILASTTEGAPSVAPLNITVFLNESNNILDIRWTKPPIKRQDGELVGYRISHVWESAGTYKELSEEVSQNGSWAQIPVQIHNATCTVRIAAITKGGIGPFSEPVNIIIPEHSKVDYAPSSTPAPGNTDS
Protocol: as §1

B1: h10C3.v14 (antibody, V domains shown)
VH: EVQLVESGGGLVQPGGSLRLSCAASGFSLSGYTMGWVRQAPGKGLEYIGVISSGGTTYYTNWAKGRFTISKDNSKNTLYLQMGSLRAEDMAVYYCARVAFTAYGGGGFPTLHRLDLWGQGTLVTVSS
VL: DQVLTQSPDSLAVSLGERATINCQSSESVYNNDYLAWYQQKPGQPPKLLIYSASTLASGVPDRFSGSGSGTDFTLTISSLQAEDVAVYYCAGGYLGNNVFGGGTKVEIK
notes: Humanized, human IgG1; also called 10C3 Humanized polished mAb
IC50 (nM), efferocytosis by human macrophages, Average (3 Donors) [1]: 0.95 nM | IC50 (nM), efferocytosis by human macrophages, Donor A [1]: 0.52 nM | IC50 (nM), efferocytosis by human macrophages, Donor B [1]: 1.2 nM | IC50 (nM), efferocytosis by human macrophages, Donor C [1]: 1.2 nM | Max Inhibition (%), efferocytosis by human macrophages, Average (3 Donors) [1]: 61% | Max Inhibition (%), efferocytosis by human macrophages, Donor A [1]: 64% | Max Inhibition (%), efferocytosis by human macrophages, Donor B [1]: 58% | Max Inhibition (%), efferocytosis by human macrophages, Donor C [1]: 62% | Kd (human MerTK): 6.9 nM | Kd (cynomolgus monkey MerTK): 3.2 nM | Kd (rat MerTK): 2.4 nM | Kd (mouse MerTK): 0.9 nM
